Experimental findings from paper PMC3950713 are described below.

Common to all, as to assay: MST
One series concerns the target T1, HpDprA(5-217)F140E (Helicobacter pylori 26695, UniProt O25100 5-217, F140E).
T1 sequence: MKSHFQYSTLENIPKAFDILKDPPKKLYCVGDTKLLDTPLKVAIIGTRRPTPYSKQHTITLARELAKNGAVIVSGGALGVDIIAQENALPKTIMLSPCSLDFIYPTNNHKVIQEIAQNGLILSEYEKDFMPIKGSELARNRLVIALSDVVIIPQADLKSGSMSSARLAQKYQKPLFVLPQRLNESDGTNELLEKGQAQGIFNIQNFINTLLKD

The target of a further series is T2, HpDprA(5-217)WT (Helicobacter pylori 26695, UniProt O25100 5-217).
T2 sequence: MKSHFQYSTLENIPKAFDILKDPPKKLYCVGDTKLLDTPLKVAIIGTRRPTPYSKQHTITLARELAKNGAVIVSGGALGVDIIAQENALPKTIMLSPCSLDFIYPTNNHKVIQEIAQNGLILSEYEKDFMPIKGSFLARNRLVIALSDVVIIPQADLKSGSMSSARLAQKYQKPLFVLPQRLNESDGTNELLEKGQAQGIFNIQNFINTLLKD

Another series concerns the target T3, HpDprA(5-217)R52E/K137E (Helicobacter pylori 26695, UniProt O25100 5-217, R52E;K137E).
T3 sequence: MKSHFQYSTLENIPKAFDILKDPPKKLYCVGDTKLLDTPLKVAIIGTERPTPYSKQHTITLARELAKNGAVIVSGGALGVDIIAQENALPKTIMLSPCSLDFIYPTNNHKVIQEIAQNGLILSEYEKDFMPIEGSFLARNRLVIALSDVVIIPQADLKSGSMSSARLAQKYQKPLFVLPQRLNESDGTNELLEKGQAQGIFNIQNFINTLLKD

The target in the next series is T4, HpDprA(5-217)R52E/R143E (Helicobacter pylori 26695, UniProt O25100 5-217, R52E;R143E).
T4 sequence: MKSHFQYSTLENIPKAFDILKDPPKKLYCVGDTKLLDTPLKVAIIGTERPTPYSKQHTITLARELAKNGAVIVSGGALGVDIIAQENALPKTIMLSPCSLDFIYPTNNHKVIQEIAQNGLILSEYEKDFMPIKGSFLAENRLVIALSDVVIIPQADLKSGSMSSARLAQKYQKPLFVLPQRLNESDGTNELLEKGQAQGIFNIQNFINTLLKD

A further series deals with T5, HpDprA(5-217)K137E (Helicobacter pylori 26695, UniProt O25100 5-217, K137E).
T5 sequence: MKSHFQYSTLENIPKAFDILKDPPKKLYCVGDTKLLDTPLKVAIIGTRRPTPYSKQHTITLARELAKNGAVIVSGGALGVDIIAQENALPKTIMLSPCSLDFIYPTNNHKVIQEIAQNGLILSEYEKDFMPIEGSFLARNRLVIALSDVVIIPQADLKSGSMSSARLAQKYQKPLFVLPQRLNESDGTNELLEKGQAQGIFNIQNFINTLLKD

A further series concerns the target T6, HpDprA full-length (Helicobacter pylori 26695, UniProt O25100 1-270).
T6 sequence: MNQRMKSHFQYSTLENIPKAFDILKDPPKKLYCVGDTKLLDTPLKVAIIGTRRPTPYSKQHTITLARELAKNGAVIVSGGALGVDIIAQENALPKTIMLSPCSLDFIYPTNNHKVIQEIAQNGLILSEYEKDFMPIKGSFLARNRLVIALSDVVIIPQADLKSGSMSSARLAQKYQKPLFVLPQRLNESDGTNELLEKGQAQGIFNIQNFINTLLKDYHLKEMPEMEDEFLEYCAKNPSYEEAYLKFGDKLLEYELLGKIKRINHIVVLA

B1: dT35 (ssDNA)
DNA: TTTTTTTTTTTTTTTTTTTTTTTTTTTTTTTTTTT
B1: the dissociation constant (Kd) was 556 ± 28 nM with HpDprA(5-217)F140E, 31.5 ± 0.806 nM with HpDprA(5-217)WT, 7220 ± 216 nM with HpDprA(5-217)K137E and 2.26 ± 0.167 nM with HpDprA full-length. Moreover, the binding result with HpDprA(5-217)R52E/K137E and in the series with HpDprA(5-217)R52E/R143E was “no binding” in each case.
